Results: PMC4361618, “Nab3 Facilitates the Function of the TRAMP Complex in RNA Processing via Recruitment of Rrp6 Independent of Nrd1” (PLoS Genetics, 2015)

T1: TAP-tagged Nrd1 (S. cerevisiae, UniProt P53617 1-575)
T1 construct: also called Nrd1-TAP; source: S. cerevisiae NRD1-TAP strain (ACY2293; Thermo Scientific Open Biosystems), in lysate
T1 sequence (looked up): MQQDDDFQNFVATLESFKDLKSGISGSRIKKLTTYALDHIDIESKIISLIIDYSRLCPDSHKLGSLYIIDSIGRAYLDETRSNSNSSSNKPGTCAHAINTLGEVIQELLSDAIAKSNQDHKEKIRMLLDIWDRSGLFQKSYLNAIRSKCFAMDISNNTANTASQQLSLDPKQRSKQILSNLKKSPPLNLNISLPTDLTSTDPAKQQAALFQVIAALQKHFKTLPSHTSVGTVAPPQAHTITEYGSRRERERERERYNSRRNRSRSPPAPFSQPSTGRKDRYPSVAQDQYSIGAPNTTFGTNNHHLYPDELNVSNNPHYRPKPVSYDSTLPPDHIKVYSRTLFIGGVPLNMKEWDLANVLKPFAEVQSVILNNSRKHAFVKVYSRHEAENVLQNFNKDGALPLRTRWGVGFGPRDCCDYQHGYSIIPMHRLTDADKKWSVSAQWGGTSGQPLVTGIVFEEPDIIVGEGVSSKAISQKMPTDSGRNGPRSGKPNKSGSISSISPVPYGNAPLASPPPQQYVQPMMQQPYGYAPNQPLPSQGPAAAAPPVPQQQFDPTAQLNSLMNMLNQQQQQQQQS

T2: recombinant GST-tagged full-length Nab3 (S. cerevisiae, UniProt P38996 1-802)
T2 construct: Nab3, S. cerevisiae, full length, cloned into pGEX-TEV; also called GST-Nab3; source: E. coli DE3 cells, purified (glutathione Sepharose 4B, batch)
T2 sequence (looked up): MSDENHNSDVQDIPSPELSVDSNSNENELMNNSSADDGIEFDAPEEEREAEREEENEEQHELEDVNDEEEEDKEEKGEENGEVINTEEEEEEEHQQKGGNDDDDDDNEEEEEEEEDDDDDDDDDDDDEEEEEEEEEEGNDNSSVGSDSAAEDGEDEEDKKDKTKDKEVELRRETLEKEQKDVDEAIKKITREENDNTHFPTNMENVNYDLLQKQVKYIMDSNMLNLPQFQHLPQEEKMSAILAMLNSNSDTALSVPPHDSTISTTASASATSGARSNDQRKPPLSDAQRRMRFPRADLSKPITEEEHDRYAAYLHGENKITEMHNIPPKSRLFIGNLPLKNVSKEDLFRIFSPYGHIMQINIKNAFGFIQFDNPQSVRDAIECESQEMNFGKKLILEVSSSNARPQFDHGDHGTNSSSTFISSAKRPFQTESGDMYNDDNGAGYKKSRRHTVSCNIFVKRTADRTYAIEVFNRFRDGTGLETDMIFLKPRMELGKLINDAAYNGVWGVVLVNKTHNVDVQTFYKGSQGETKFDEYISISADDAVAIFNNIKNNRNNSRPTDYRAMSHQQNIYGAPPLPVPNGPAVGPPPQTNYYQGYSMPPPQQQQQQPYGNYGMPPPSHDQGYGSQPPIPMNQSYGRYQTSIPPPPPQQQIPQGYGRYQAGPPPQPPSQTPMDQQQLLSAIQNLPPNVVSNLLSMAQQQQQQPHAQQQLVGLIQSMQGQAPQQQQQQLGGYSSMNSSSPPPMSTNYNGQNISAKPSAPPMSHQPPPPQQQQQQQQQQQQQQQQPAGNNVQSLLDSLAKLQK

B1: Myc-tagged nab3-ΔNBD mutant (Δ204–248) (natural protein, S. cerevisiae, UniProt P38996 1-802, looked up)
chain: MSDENHNSDVQDIPSPELSVDSNSNENELMNNSSADDGIEFDAPEEEREAEREEENEEQHELEDVNDEEEEDKEEKGEENGEVINTEEEEEEEHQQKGGNDDDDDDNEEEEEEEEDDDDDDDDDDDDEEEEEEEEEEGNDNSSVGSDSAAEDGEDEEDKKDKTKDKEVELRRETLEKEQKDVDEAIKKITREENDNTHFPTNMSDTALSVPPHDSTISTTASASATSGARSNDQRKPPLSDAQRRMRFPRADLSKPITEEEHDRYAAYLHGENKITEMHNIPPKSRLFIGNLPLKNVSKEDLFRIFSPYGHIMQINIKNAFGFIQFDNPQSVRDAIECESQEMNFGKKLILEVSSSNARPQFDHGDHGTNSSSTFISSAKRPFQTESGDMYNDDNGAGYKKSRRHTVSCNIFVKRTADRTYAIEVFNRFRDGTGLETDMIFLKPRMELGKLINDAAYNGVWGVVLVNKTHNVDVQTFYKGSQGETKFDEYISISADDAVAIFNNIKNNRNNSRPTDYRAMSHQQNIYGAPPLPVPNGPAVGPPPQTNYYQGYSMPPPQQQQQQPYGNYGMPPPSHDQGYGSQPPIPMNQSYGRYQTSIPPPPPQQQIPQGYGRYQAGPPPQPPSQTPMDQQQLLSAIQNLPPNVVSNLLSMAQQQQQQPHAQQQLVGLIQSMQGQAPQQQQQQLGGYSSMNSSSPPPMSTNYNGQNISAKPSAPPMSHQPPPPQQQQQQQQQQQQQQQQPAGNNVQSLLDSLAKLQK
notes: also called nab3 NBD mutant; nab3-NBD; source: S. cerevisiae (NRD1-TAP, RRP6-TAP or DIS3-TAP cells), 2μ URA3 plasmid, in lysate; not shown: 2xMyc, C-terminal, kept
B2: His-tagged full-length Rrp6 (enzyme, S. cerevisiae, UniProt Q12149 1-733, looked up)
chain: MTSENPDVLLSRVINVVRAASSLASQDVDFYKNLDRGFSKDLKSKADKLADMANEIILSIDEHHESFELKEEDISDLWNNFGNIMDNLLEMSDHSLDKLNCAINSKSRGSDLQYLGEFSGKNFSPTKRVEKPQLKFKSPIDNSESHPFIPLLKEKPNALKPLSESLRLVDDDENNPSHYPHPYEYEIDHQEYSPEILQIREEIPSKSWDDSVPIWVDTSTELESMLEDLKNTKEIAVDLEHHDYRSYYGIVCLMQISTRERDYLVDTLKLRENLHILNEVFTNPSIVKVFHGAFMDIIWLQRDLGLYVVGLFDTYHASKAIGLPRHSLAYLLENFANFKTSKKYQLADWRIRPLSKPMTAYARADTHFLLNIYDQLRNKLIESNKLAGVLYESRNVAKRRFEYSKYRPLTPSSEVYSPIEKESPWKILMYQYNIPPEREVLVRELYQWRDLIARRDDESPRFVMPNQLLAALVAYTPTDVIGVVSLTNGVTEHVRQNAKLLANLIRDALRNIKNTNEEATPIPSSETKADGILLETISVPQIRDVMERFSVLCNSNISKSRAKPVTNSSILLGKILPREEHDIAYSKDGLPNKVKTEDIRIRAQNFKSALANLEDIIFEIEKPLVVPVKLEEIKTVDPASAPNHSPEIDNLDDLVVLKKKNIQKKQPAKEKGVTEKDAVDYSKIPNILSNKPGQNNRQQKKRRFDPSSSDSNGPRAAKKRRPAAKGKNLSFKR
notes: Rrp6, S. cerevisiae nuclear exosome 3'-5' riboexonuclease, full length, cloned into pET30a-TEV; also called His-Rrp6; His6-RRP6; source: E. coli DE3 cells, purified (nickel-NTA agarose, batch)
B3: GST-tagged Rrp47 (natural protein, S. cerevisiae, UniProt P38801 1-184, looked up)
chain: MEDIEKIKPYVRSFSKALDELKPEIEKLTSKSLDEQLLLLSDERAKLELINRYAYVLSSLMFANMKVLGVKDMSPILGELKRVKSYMDKAKQYDNRITKSNEKSQAEQEKAKNIISNVLDGNKNQFEPSISRSNFQGKHTKFENDELAESTTTKIIDSTDHIRKASSKKSKRLDKVGKKKGGKK
notes: Rrp47, S. cerevisiae exosome cofactor; RRP47 gene amplified (W303 gDNA template) and cloned into pGEX-TEV; also called GST-Rrp47; source: E. coli DE3 cells, purified (glutathione Sepharose 4B, batch)

Columns and labels:
TAP-tagged Nrd1 = molecular target: T1, TAP-tagged Nrd1; experiment: co-IP; TAP-tagged Nrd1 precipitated on IgG Sepharose beads from lysates of NRD1-TAP yeast cells expressing Myc-tagged Nab3 proteins; IPP150 buffer (10 mM Tris-HCl pH 8, 150 mM NaCl, 0.1% NP-40), overnight at 4°C; anti-Myc immunoblot; % bound relative to input and to bound wild-type Nab3; conditions: partners not purified
[1] = molecular target: T2, recombinant GST-tagged full-length Nab3; experiment: pull-down; 8 μg purified GST fusion incubated with 14 μg purified His-Rrp6 and glutathione Sepharose 4B in IPP100 buffer (10 mM Tris-HCl pH 8, 100 mM NaCl, 0.1% NP-40) with 10 mg/ml BSA, 2 mM DTT, 2 hr at 4°C; anti-His immunoblot; conditions: both partners purified
[2] = molecular target: B2; experiment: as above; conditions: both partners purified

B1
% bound relative to wild-type Nab3 (TAP-tagged Nrd1): 8%

B2
binding result [1]: binds

B3
binding result [2]: binds
